For experiment [1], the target named is HLA-A*68:02. Briefly: IEDB peptide-MHC binding, cellular MHC/competitive/fluorescence; ≥ and ≤ were set here for values at or beyond the usual limits of such assays.
Experiment [2] concerns the target HLA-A*02:01. The experiment in a line: IEDB peptide-MHC binding, purified MHC/competitive/radioactivity; ≥ and ≤ were set here for values at or beyond the usual limits of such assays.
Experiment [3] concerns the target HLA-A*02:02. Described as above.
The target of experiment [4] is HLA-A*02:03. The experiment is described as above.
For experiment [5], the target named is HLA-A*02:06. Described as above.
[6] abbreviates: source organism: Hepacivirus hominis.
The mark [7] stands for this setting: source organism: Vaccinia virus WR.
Where [8] appears, read: source organism: Mammarenavirus machupoense.

A value given as a limit tells only on which side of the number the result lay.

Turning to KLFPRLPGI, the IC50 (in general, the concentration that inhibits the measured activity by half) in experiment [1] (setting [6]) worked out at 40200 nM; in experiment [2] (setting [6]), 1.3 nM; in experiment [3] (setting [6]), 8.3 nM; in experiment [4] (setting [6]), 0.5 nM; in experiment [5] (setting [6]), 2.2 nM.

On to ALDCQIYGA, for which the IC50 is at least 70000 nM in experiment [1] (setting [6]); 143 nM in experiment [2] (setting [6]); 1590 nM in experiment [3] (setting [6]); 1800 nM in experiment [4] (setting [6]); 1200 nM in experiment [5] (setting [6]).

With FLLNKEMYL, the IC50 in experiment [1] (source organism: SARS-CoV1) is 12000 nM; in experiment [2] (source organism: SARS-CoV1), 1.1 nM; in experiment [3] (source organism: SARS-CoV1) it was 0.33 nM; in experiment [4] (source organism: SARS-CoV1), 1.1 nM; in experiment [5] (source organism: SARS-CoV1), 1.6 nM.

As for AVTLNRIKIA, the IC50 in experiment [1] (setting [7]) came out at 11000 nM; in experiment [2] (setting [7]), 1250 nM; in experiment [3] (setting [7]) it was 1720 nM; in experiment [4] (setting [7]), 1290 nM; in experiment [5] (setting [7]), 2290 nM.

Take KLPTWLGAAI: the IC50 in experiment [1] (setting [7]) was 6370 nM; in experiment [2] (setting [7]) it was 226 nM; in experiment [3] (setting [7]), 103 nM; in experiment [4] (setting [7]), 123 nM; in experiment [5] (setting [7]) it was 295 nM.

Turning to GLYIPGTSVI, the IC50 in experiment [1] (setting [7]) is at least 70000 nM; in experiment [2] (setting [7]), 1570 nM; in experiment [3] (setting [7]), 92 nM; in experiment [4] (setting [7]), 0.19 nM; in experiment [5] (setting [7]), 3620 nM.

On to NLAPHLLLIV, for which the IC50 in experiment [1] (source organism: SARS-CoV1) amounted to 7240 nM; in experiment [2] (source organism: SARS-CoV1), 206 nM; in experiment [3] (source organism: SARS-CoV1), 5.1 nM; in experiment [4] (source organism: SARS-CoV1), 1.1 nM; in experiment [5] (source organism: SARS-CoV1), 125 nM.

For the sequence FLLFLVLIML, the IC50 in experiment [1] (source organism: SARS-CoV1) worked out at 5940 nM; in experiment [2] (source organism: SARS-CoV1), 140 nM; in experiment [3] (source organism: SARS-CoV1), 1570 nM; in experiment [4] (source organism: SARS-CoV1) it was 1380 nM; in experiment [5] (source organism: SARS-CoV1) it was 2920 nM.

On to SLDQTHIKTI, for which the IC50 stood at 7580 nM in experiment [1] (setting [7]); 759 nM in experiment [2] (setting [7]); 1430 nM in experiment [3] (setting [7]); 15 nM in experiment [4] (setting [7]); 2460 nM in experiment [5] (setting [7]).

Regarding LLYFILFFVA, the IC50 was at least 70000 nM in experiment [1] (setting [6]); 1120 nM in experiment [2] (setting [6]); 3740 nM in experiment [3] (setting [6]); 4700 nM in experiment [4] (setting [6]); 993 nM in experiment [5] (setting [6]).

Consider DMLLNVQTLI, for which the IC50 in experiment [1] (setting [7]) is 6690 nM; in experiment [2] (setting [7]) it was 80 nM; in experiment [3] (setting [7]) it was 42 nM; in experiment [4] (setting [7]) it was 161 nM; in experiment [5] (setting [7]), 291 nM.

Take LLKCVSDSWL: the IC50 stood at 9850 nM in experiment [1] (setting [7]); 1530 nM in experiment [2] (setting [7]); 76 nM in experiment [3] (setting [7]); 118 nM in experiment [4] (setting [7]); 4730 nM in experiment [5] (setting [7]).

As to YLPEVISTIA, the IC50 in experiment [1] (setting [7]) was found to be 7130 nM; in experiment [2] (setting [7]), 29 nM; in experiment [3] (setting [7]), 11 nM; in experiment [4] (setting [7]), 0.96 nM; in experiment [5] (setting [7]) it was 18 nM.

Regarding ILFQNNDINA, the IC50 in experiment [1] (setting [7]) is 9980 nM; in experiment [2] (setting [7]), 549 nM; in experiment [3] (setting [7]), 23 nM; in experiment [4] (setting [7]) it was 407 nM; in experiment [5] (setting [7]) it was 3180 nM.

As for SLVTSFLLM, the IC50 is 50100 nM in experiment [1] (source organism: SARS-CoV1); 271 nM in experiment [2] (source organism: SARS-CoV1); 66 nM in experiment [3] (source organism: SARS-CoV1); 49 nM in experiment [4] (source organism: SARS-CoV1); 257 nM in experiment [5] (source organism: SARS-CoV1).

On to KINPLLDEPL, for which the IC50 in experiment [1] (setting [7]) is 10100 nM; in experiment [2] (setting [7]), 1470 nM; in experiment [3] (setting [7]), 53 nM; in experiment [4] (setting [7]) it was 304 nM; in experiment [5] (setting [7]), 19 nM.

Regarding RALKAYFTA, the IC50 in experiment [1] (setting [7]) came out at 11400 nM; in experiment [2] (setting [7]), 158 nM; in experiment [3] (setting [7]), 2350 nM; in experiment [4] (setting [7]) it was 204 nM; in experiment [5] (setting [7]), 14 nM.

For the sequence GLSQFTHTV, the IC50 turned out to be 15100 nM in experiment [1] (setting [8]); 18 nM in experiment [2] (setting [8]); 5.3 nM in experiment [3] (setting [8]); 7.7 nM in experiment [4] (setting [8]); 332 nM in experiment [5] (setting [8]).

Consider GMYYPTNDI, for which the IC50 in experiment [1] (setting [7]) was at least 70000 nM; in experiment [2] (setting [7]), 268 nM; in experiment [3] (setting [7]) it was 53 nM; in experiment [4] (setting [7]), 8.7 nM; in experiment [5] (setting [7]), 1680 nM.

Turning to MLDDFSAGA, the IC50 in experiment [1] (setting [7]) worked out at 10500 nM; in experiment [2] (setting [7]), 0.43 nM; in experiment [3] (setting [7]), 68 nM; in experiment [4] (setting [7]), 73 nM; in experiment [5] (setting [7]) it was 114 nM.

With GLCNYGGIL, the IC50 was at least 70000 nM in experiment [1] (setting [7]); 412 nM in experiment [2] (setting [7]); 98 nM in experiment [3] (setting [7]); 125 nM in experiment [4] (setting [7]); 1360 nM in experiment [5] (setting [7]).

With VLLPFYETL, the IC50 in experiment [1] (setting [7]) was determined as 24300 nM; in experiment [2] (setting [7]), 7.2 nM; in experiment [3] (setting [7]) it was 4060 nM; in experiment [4] (setting [7]) it was 267 nM; in experiment [5] (setting [7]), 218 nM.

Consider VMPEKRNVV, for which the IC50 in experiment [1] (setting [7]) was found to be 6590 nM; in experiment [2] (setting [7]), 495 nM; in experiment [3] (setting [7]), 1100 nM; in experiment [4] (setting [7]) it was 23 nM; in experiment [5] (setting [7]), 3290 nM.

Take SLGKSPLPSL: the IC50 came out at 12800 nM in experiment [1] (setting [7]); 134 nM in experiment [2] (setting [7]); 4.1 nM in experiment [3] (setting [7]); 47 nM in experiment [4] (setting [7]); 1430 nM in experiment [5] (setting [7]).
